Patent US20190292270A1 (UNIVERSITY OF TOKYO, published 2019)

Biological target: T1, mouse TLR9 (mouse, UniProt Q9EQU3 26-1032)
T1 construct: Endogenous TLR9 of mouse spleen cDCs (staining) and of BM-cDC lysate (immunoprecipitation); also called endogenous TLR9
T1 sequence: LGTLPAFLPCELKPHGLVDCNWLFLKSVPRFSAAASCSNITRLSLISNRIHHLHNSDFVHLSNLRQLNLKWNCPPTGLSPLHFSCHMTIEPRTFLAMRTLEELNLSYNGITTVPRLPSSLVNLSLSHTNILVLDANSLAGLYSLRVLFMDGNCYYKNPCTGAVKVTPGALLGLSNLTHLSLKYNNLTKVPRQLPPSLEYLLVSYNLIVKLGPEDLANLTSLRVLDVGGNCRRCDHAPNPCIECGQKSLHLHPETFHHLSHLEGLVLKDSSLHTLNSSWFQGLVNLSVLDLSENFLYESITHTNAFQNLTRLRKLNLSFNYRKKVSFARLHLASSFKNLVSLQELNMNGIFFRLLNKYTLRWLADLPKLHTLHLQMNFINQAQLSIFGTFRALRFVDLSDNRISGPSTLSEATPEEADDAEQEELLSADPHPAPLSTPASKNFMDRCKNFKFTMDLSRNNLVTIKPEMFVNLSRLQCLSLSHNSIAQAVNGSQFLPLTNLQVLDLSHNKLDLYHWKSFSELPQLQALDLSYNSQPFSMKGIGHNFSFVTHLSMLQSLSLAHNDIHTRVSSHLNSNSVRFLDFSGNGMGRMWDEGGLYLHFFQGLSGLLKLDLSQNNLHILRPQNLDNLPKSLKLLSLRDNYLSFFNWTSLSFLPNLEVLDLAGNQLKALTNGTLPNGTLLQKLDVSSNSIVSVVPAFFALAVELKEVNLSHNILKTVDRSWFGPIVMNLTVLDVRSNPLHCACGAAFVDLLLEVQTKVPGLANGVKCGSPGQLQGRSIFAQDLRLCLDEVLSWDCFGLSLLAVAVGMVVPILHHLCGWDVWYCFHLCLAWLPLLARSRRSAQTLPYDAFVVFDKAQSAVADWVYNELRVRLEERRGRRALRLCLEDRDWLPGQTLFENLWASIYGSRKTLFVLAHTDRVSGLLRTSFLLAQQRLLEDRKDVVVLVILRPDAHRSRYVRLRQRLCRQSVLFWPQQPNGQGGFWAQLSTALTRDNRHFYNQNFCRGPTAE
Assay: immunoprecipitation from BM-cDC lysate, Western blot; also staining of spleen cDCs
Method: The protein expression of TLR9 was analyzed by Western blot. BM-cDCs were washed twice with 1×PBS and recovered. The recovered cells were lysed for 30 minutes in an ice-cold buffer for lysis (1% Triton X 100, 20 mM Tris-HCl (pH 7.4), 150 mM NaCl, 1 mM CaCl₂, 1 mM MgCl₂, 10% glycerol, 1 mM DTT and Complete protease Inhibitor Cocktail (F. Hoffmann-La Roche, Ltd.)) and centrifuged at a high speed, followed by the recovery of the supernatant of the cell lysate.
The recovered cell lysate was added to N-hydroxy succinimide-activated Sepharose 4FF beads bound with the anti-TLR9 monoclonal antibody (NaR9), and the mixture was stirred at 4° C. for 2 hours. TLR9 was immunoprecipitated by this step. The beads thus stirred were washed three times with an ice-cold buffer for washing (0.1% Triton X 100, 20 mM Tris/HCl (pH 7.4), 150 mM NaCl, 1 mM CaCl₂), 1 mM MgCl2, 0.1% glycerol, and 1 mM DTT). To the washed beads, an SDS sample buffer (125 mM Tris/HCl [pH 6.8], 20% glycerol, 4% SDS, 10% 2-ME, and 0.005% bromophenol blue) was added, and the mixture was heated at 96° C. for 5 minutes for protein denaturation treatment. The sample thus prepared was subjected to polyacrylamide electrophoresis, and the protein was transferred to a PVDF membrane and Western-blotted. […]

- binding result: binds
B1: anti-mouse TLR9 monoclonal antibody NaR9 (antibody, IgG2a, V domains shown)
VH: QVHLQQSGPDLVKPGASVQMSCKTSDYTFTNYYLHWVRQRPGQGLEWIGWIYPGDGSTKYNDQFRGRTTLTADKSSSTAYMFLSSLTSEDSAIYFCAKSWDYFDYWGQGTTLTVSS
VL: DIQMTQSPSSLSASLGGKVTITCKASQDIDNYIAWYQHKPGKGPRLLIHYASTLQPGIPSRFSGSGSGRDYSLSISNLEPEDIATYYCLQYDDLYTFGGGTKLEIK
notes: Mouse hybridoma antibody, subclass IgG2a/kappa, purified from ascitic fluid; They may therefore cover only the variable regions, possibly with a leader; also called NaR9 antibody; anti-TLR9 monoclonal antibody (NaR9)
